These results are taken from US6335019B1, “Methods for treating sensitivity to protein allergen using peptides which include a T cell epitope recognized by a T cell receptor specific for the protein allergen” (Immulogic Pharmaceutical Corp., priority 1989, dated 2002).

Assay [1] has as its system human IgE (ragweed allergic patient sera). Nature of the assay: SDS-PAGE Western blot (and ELISA) of ragweed allergic patient IgE binding to pollen, affinity purified and recombinant Amb a I / Amb a II. Set-up: key to IgE binding, summarized Western blot data: −: no signal over background; +−: barely discernable over background; +: clearly positive; ++: strongly positive; +++: highly positive. Particulars: for Extent of specific IgE binding relative to Amb a IB or Amb a II (in words): patient #295, FIG. 20; for Human IgE binding (in words): Western blot (FIG. 17) and/or ELISA, ragweed allergic patient IgE. The method, then:
As represented in FIG. 1A, a selected monoclonal antibody (designated 4B5/B7) which recognizes an Amb a I preparation unsubjected to denaturing conditions was used to affinity purify from pollen extract a single protein, which is referred to as affinity purified Amb a I. This was carried out, using known techniques, by producing the desired monoclonal antibody, isolating it in large quantities from ascites and immobilizing it on Sepharose (Pharmacia). Aqueous pollen extract was passed over the monoclonal antibody-containing column and a protein species was eluted.
Furthermore, full-length and truncated cDNAs encoding several members of the Amb a I multigene family, as well as Amb a II, were cloned in-frame into the expression vector pTrc99 (Amann et al. Gene, 69:301-315, (1988)) and transformed into the JM109 host. Expression of recombinant Amb a I and Amb a II protein was induced by 1 mM isopropyl-β-D-thiogalactopyranoside, cells were harvested, lysozyme treated, sonicated and insoluble inclusion bodies recovered by a low speed centrifugation. Recombinant Amb a I and Amb a II protein present in the recovered pellet was solubilized in buffer containing 8M urea, 50 mM Tris HC1 pH8.0, 50 mM NaCl, 1 mM EDTA, 1 mM dithiothreitol, 1 mM phenylmethylsulfonyl fluoride. After solubilization, the crude urea lysate was dialyzed at 4° C. against PBS. […] This antigenic cross-reactivity is consistent with the observed sequence homology of the cDNAs (see FIG. 16).
Comparison of human IgE binding to recombinant Amb a I and Amb a II proteins with anti-peptide and monoclonal anti-Amb a I antibodies have provided data consistent with the conclusion that the N-terminal portion (historically referred to as the β-region) of Amb a IA includes the major IgE eptiope(s).
Affinity purified Amb a I was electrophoresed, Western transferred (Towbin et al., Proc. Natl. Acad. Sci. USA, 76:4350 (1979)) and probed with a variety of antibodies, including IgE from an allergic patient (FIG. 17). In pollen extract Amb a I is not only present as an intact 38-KD species, but also characterized by its component 26KD alpha chains and 12-KD beta chains which are formed by enzymatic cleavage. The intact 38-KD species and the alpha chain are clearly detected using rabbit anti-Amb a I, polyclonal affinity purified anti-RAE 16 and monoclonal anti-Amb a I JBIE3-4 (FIG. 17); RAE 16 peptide has the sequence RTDKDLLENGAIC derived from amino-acids […] of Amb a IB, FIG. 16). Affinity purified Amb a I (partial sequence presented in Table 1) as well as chromatographically purified Amb a II (partial sequence presented in Table 2) are bound on Western blots by these antibodies as well as by patient IgE (FIG. 17). The goat anti-Amb a I polyclonal antibody also binds multiple Amb a I and Amb a II species on a two dimensional Western blot of pollen extract (FIG. 18). The Western blot was performed as outlined below. […]

Assay [2] concerns rabbit anti-Amb a I polyclonal antibody. The experiment in a line: Western blot with rabbit anti-Amb a I polyclonal antibody (FIG. 17). The class given is binding. The source says:
As is also represented in FIG. 1A, rabbit polyclonal antibodies were produced using the King Antigen E preparation. […] These antibodies were also shown, using a similar technique, to bind to the affinity purified Amb a I described previously (FIG. 17).
It is clear from the antibody reactivity that the 4B5/B7 affinity purified Amb a I has a recognition pattern similar to that of the Amb a I of pollen and skin test reagent with both rabbit polyclonal anti-Amb a I and JB1E3-4 anti-Amb a I monoclonal antibody (FIG. 17).
Affinity purified Amb a I was electrophoresed, Western transferred (Towbin et al., Proc. Natl. Acad. Sci. USA, 76:4350 (1979)) and probed with a variety of antibodies, including IgE from an allergic patient (FIG. 17). In pollen extract Amb a I is not only present as an intact 38-KD species, but also characterized by its component 26KD alpha chains and 12-KD beta chains which are formed by enzymatic cleavage. The intact 38-KD species and the alpha chain are clearly detected using rabbit anti-Amb a I, polyclonal affinity purified anti-RAE 16 and monoclonal anti-Amb a I JBIE3-4 (FIG. 17); RAE 16 peptide has the sequence RTDKDLLENGAIC derived from amino-acids 343-353 of Amb a IB, FIG. 16). […]

B1: Amb a IC: E. coli expressed recombinant Amb a IC, used as crude bacterial lysate (protein)
chain: LYFTLALVALLQPVRSAEGVGEILPSVNETRSLQACEALNIIDKCWRGKADWENNRQALADCAQGFAKGTYGGKWGDVYTVTSNLDDDVANPKEGTLRFAAAQNRPLWIIFKNDMVINLNQELVVNSDKTIDGRGVKVEIINGGLTLMNVKNIIIHNINIHDVKVLPGGMIKSNDGPPILRQASDGDTINVAGSSQIWIDHCSLSKSFDGLVDVTLGSTHVTISNCKFTQQSKAILLGADDTHVQDKGMLATVAFNMFTDNVDQRMPRCRFGFFQVVNNNYDRWGTYAIGGSSAPTILCQGNRFLAPDDQIKKNVLARTGTGAAESMAWNWRSDKDLLENGAIFVTSGSDPVLTPVQSAGMIPAEPGEAAIKLTSSAGVFSCRPGAPC
For B1, the “IgE binding, summarized Western blot data” value in assay [1] (patient 151) is “+”; in assay [1] (patient 222), “+−”; in assay [1] (patient 291), “+++”; in assay [1] (patient 295) it was “+++”; in assay [1] (patient 296) it was “++”. In assay [1], the “Extent of specific IgE binding relative to Amb a IB or Amb a II (in words)” value is given as “far greater extent”.

B2: Amb a IB: E. coli expressed recombinant Amb a IB, used as crude bacterial lysate (protein)
chain: LYFTLALVTLLQPVRSAEDVEEFLPSANETRRSLKACEAHNIIDKCWRCKADWANNRQALADCAQGFAKGTYGGKHGDVYTVTSDKDDDVANPKEGTLRFAAAQNRPLWIIFKRNMVIHLNQELVVNSDKTIDGRGVKVNIVNAGLTLMNVKNIIIHNINIHDIKVCPGGMIKSNDGPPILRQQSDGDAINVAGSSQIWIDHCSLSKASDGLLDITLGSSHVTVSNCKFTQHQFVLLLGADDTHYQDKGMLATVAFNMFTDHVDQRMPRCRFGFFQVVNNNYDRWGTYAIGGSSAPTILSQGNRFFAPDDIIKKNVLARTGTGNAESMSWNWRTDRDLLENGAIFLPSGSDPVLTPEQKAGMIPAEPGEAVLRLTSSAGVLSCHQGAPC
Consider B2, for which the “IgE binding, summarized Western blot data” value in assay [1] (patient 151) is “−”; in assay [1] (patient 222), “+−”; in assay [1] (patient 291), “−”; in assay [1] (patient 295), “+”.

B3: affinity purified Amb a I: protein affinity purified from pollen extract with monoclonal antibody 4B5/B7 (protein)
chain: AEDLQEILPVNETRRLTTSGAYNIIDGCWRGKADWAENRKALADCAQGFGKGTVGGKDGDIYTVTSELDDDVANPKEGTLRFGAAQNRPLWIIFERDMVIRLDKEMVVNSDKTIDGRGAKVEIINAGFTLNGVKNVIIHNINMHDVKVNPGGLIKSNDGPAAPRAGSDGDAISISGSSQIWIDHCSLSKSVDGLVDAKLGTTRLTVSNSLFTQHQFVLLFGAGDENIEDRGMLATVAFNTFTDNVDQRMPRCRHGFFQVVNNNYDKWGSYAIGGSASPTILSQGNRFCAPDERSKKNVLGRHGEAAAESMKWNWRTNKDVLENGAIFVASGVDPVLTPEQSAGMIPAEPGESALSLTSSAGVLSCQPGAPC
As for B3, the entries for the “Human IgE binding (in words)” value in assay [1], in assay [1] (listed as 4B5/B7 affinity purified Amb a I) and in assay [1] (listed as Affinity purified Amb a I) were “bind human IgE”, “readily detectable IgE reactivity” and “bound”, respectively. Further, the “Binding by rabbit anti-Amb a I polyclonal antibodies (in words)” value in assay [2] is given as “bind”.

B4: Amb a IA: full-length recombinant Amb a IA, amino acid 10-398, E. coli expressed, used as crude bacterial lysate (protein)
chain: LYFTLALVTLLQPVRSAEDLQEILPVNETRRLTTSGAYNIIDGCWRGKADWAENRKALADCAQGFGKGTVGGKDGDIYTVTSELDDDVANPKEGTLRFGAAQNRPLWIIFERDMVIRLDKEMVVNSDKTIDGRGAKVEIINAGFTLNGVKNVIIHNINMHDVKVNPGGLIKSNDGPAAPRAGSDGDAISISGSSQIWIDHCSLSKSVDGLVDAKLGTTRLTVSNSLFTQHQFVLLFGAGDENIEDRGMLATVAFNTFTDNVDQRMPRCRHGFFQVVNNNYDKWGSYAIGGSASPTILSQGNRFCAPDERSKKNVLGRHGEAAAESMKWNWRTNKDVLENGAIFVASGVDPVLTPEQSAGMIPAEPGESALSLTSSAGVLSCQPGAPC
For the molecule B4, the “IgE binding, summarized Western blot data” value in assay [1] (patient 151) is given as “+”; in assay [1] (patient 222) it was “+−”; in assay [1] (patient 291), “+++”; in assay [1] (patient 295) it was “+++”; in assay [1] (patient 296), “++”. The “Extent of specific IgE binding relative to Amb a IB or Amb a II (in words)” value in assay [1] is “far greater extent”.
